Reference: publication PMC8220723

Legend:
[1] = biological target: FuTraP-hASCT2-d17, human ASCT2 with a deletion of 17 amino acids of region C, fused to AcGFP (human) (UniProt Q15758)
[2] = biological target: FuTraP-hASCT2-d17, human ASCT2 with a deletion of 17 amino acids of region C, fused to AcGFP (human) (UniProt Q15758); remark: listed apart in the source
[3] = biological target: wild-type human ASCT2 fused to AcGFP (FuTraP-hASCT2-wt) (human) (UniProt Q15758)
[4] = confocal microscopy, AcGFP with membrane dye; settings: glycan lost; control: wild type (FuTraP-hASCT2-wt)
[5] = infection, dsRed-positive cells by flow cytometry; settings: glycan lost; control: wild type (FuTraP-hASCT2-wt)
[6] = flow cytometry, AcGFP MFI normalised to iRFP713 MFI; settings: glycan lost; control: wild type (FuTraP-hASCT2-wt)

Molecule | infection of DF-1/LgBiT cells expressing the FuTraP variant by MCAS(Sync1-MSC16)dsRed, dsRed-positive cells by flow cytometry (reduced sensitivity compared to the wild type) [1] | spinoculation of cells expressing the FuTraP variant with MCAS(Sync1-MSC16)dsRed, infected (dsRed-positive) cells by flow cytometry [2] | spinoculation of cells expressing the FuTraP variant with MCAS(Sync1-MSC16)dsRed, infected (dsRed-positive) cells by flow cytometry [3] | localisation_or_trafficking [4] | other: receptor-mediated sensitivity to viral infection [5] | expression_or_secretion, percent_of_wt [6]
Syncytin-1 envelope glycoprotein of the chimeric virus MCAS(Sync1-MSC16)dsRed (cytoplasmic tail shortened to 16 amino acids) (from UniProt Q9UQF0 21-538) (natural protein) | 1.7% | 21% | 56% | – | – | –
ASCT2: N212Q (protein) parent chain: MVADPPRDSKGLAAAEPTANGGLALASIEDQGAAAGGYCGSRDQVRRCLRANLLVLLTVVAVVAGVALGLGVSGAGGALALGPERLSAFVFPGELLLRLLRMIILPLVVCSLIGGAASLDPGALGRLGAWALLFFLVTTLLASALGVGLALALQPGAASAAINASVGAAGSAENAPSKEVLDSFLDLARNIFPSNLVSAAFRSYSTTYEERNITGTRVKVPVGQEVEGMNILGLVVFAIVFGVALRKLGPEGELLIRFFNSFNEATMVLVSWIMWYAPVGIMFLVAGKIVEMEDVGLLFARLGKYILCCLLGHAIHGLLVLPLIYFLFTRKNPYRFLWGIVTPLATAFGTSSSSATLPLMMKCVEENNGVAKHISRFILPIGATVNMDGAALFQCVAAVFIAQLSQQSLDFVKIITILVTATASSVGAAGIPAGGVLTLAIILEAVNLPVDHISLILAVDWLVDRSCTVLNVEGDALGAGLLQNYVDRTESRSTEPELIQVKSELPLDPLPVPTEEGNPLLKHYRGPAGDATVASEKESVM | – | – | – | no change | no change | decreases
